Experimental data: PMC11199487, “Hub stability in the calcium calmodulin-dependent protein kinase II” (Communications Biology, 2024)
Residue numbers refer to the chain shown, from its start. Names may count otherwise. “And” between values parts separate entries of the source, which are not always exact repeats. Identical values can stand only once.

Columns and labels:
[1] = molecular target: the molecule itself; assay: cryo-EM structure; isolated Venus-tagged hubs, 20 mg/mL, flash-frozen stocks thawed on ice, grids plunge-frozen at 4 °C and 100% humidity; self-assembly of the association domains
[2] = molecular target: the molecule itself; assay: SEC; EnRich SEC 650 column, 50 mM Tris, 150 mM KCl, 0.2 mM TCEP, 2% glycerol, pH 8.0, room temperature, thawed stocks applied without dilution, 250 μL, 1 mL/min
[3] = molecular target: the molecule itself; assay: cryo-EM structure; Venus-tagged β holoenzyme sample, 20 mg/mL, fresh rather than flash-frozen preparation, grids plunge-frozen at 4 °C and 100% humidity; only the hub resolved

B1: CaMKIIβ hub (6His-V15-rCaMKIIβ hub construct) (domain or fragment, rat)
chain: ARKQEIIKTTEQLIEAVNNGDFEAYAKICDPGLTSFEPEALGNLVEGMDFHRFYFENLLAKNSKPIHTTILNPHVHVIGEDAACIAYIRLTQYIDGQGRPRTSQSEETRVWHRPDGKWQNVHFHCSGAPVAPLQ
notes: rat CaMKII beta association domain (AD); made from the holoenzyme construct by removal of the kinase domain; also called isolated β hub; native β; source: E. coli BL21/Rosetta, co-transformed with a protein phosphatase plasmid, purified (nickel Hi-Trap); not shown: Venus, N-terminal, kept
In the case of B1, the “stoichiometry N” value [1] is reported as 12 and 14.

B2: CaMKIIβ hub F458A (domain or fragment, rat)
chain: B1 chain with F50A
notes: rat CaMKII beta association domain (AD) with F458A; as m2 with the substitution; The methods describe F458A mutagenesis only of 6His-V15-rCaMKIIβ (the holoenzyme construct); The results say that F458A disassembles isolated β hubs; also called βF458A (isolated hub); source: E. coli BL21/Rosetta, co-transformed with a protein phosphatase plasmid, purified (nickel Hi-Trap); not shown: Venus, …
With B2 the “stoichiometry N” value [2] was 2.

B3: CaMKIIβ holoenzyme T287A/T306A/T307A (6His-V15-rCaMKIIβ triple mutant) (enzyme, rat, UniProt P08413 1-542, looked up)
chain: MATTVTCTRFTDEYQLYEDIGKGAFSVVRRCVKLCTGHEYAAKIINTKKLSARDHQKLEREARICRLLKHSNIVRLHDSISEEGFHYLVFDLVTGGELFEDIVAREYYSEADASHCIQQILEAVLHCHQMGVVHRDLKPENLLLASKCKGAAVKLADFGLAIEVQGDQQAWFGFAGTPGYLSPEVLRKEAYGKPVDIWACGVILYILLVGYPPFWDEDQHKLYQQIKAGAYDFPSPEWDTVTPEAKNLINQMLTINPAKRITAHEALKHPWVCQRSTVASMMHRQEAVECLKKFNARRKLKGAILAAMLATRNFSVGRQTTAPATMSTAASGTTMGLVEQAKSLLNKKADGVKPQTNSTKNSSAITSPKGSLPPAALEPQTTVIHNPVDGIKESSDSTNTTIEDEDAKARKQEIIKTTEQLIEAVNNGDFEAYAKICDPGLTSFEPEALGNLVEGMDFHRFYFENLLAKNSKPIHTTILNPHVHVIGEDAACIAYIRLTQYIDGQGRPRTSQSEETRVWHRPDGKWQNVHFHCSGAPVAPLQ
notes: rat CaMKII beta, open reading frame codon optimized for bacterial expression, with T287A, T306A and T307A; Only the association-domain hub is resolved in the cryo-EM maps; also called engineered β holoenzyme; source: E. coli BL21/Rosetta, co-transformed with a protein phosphatase plasmid, purified (nickel Hi-Trap); not shown: Venus, N-terminal, kept
B3 was tested, and the “stoichiometry N” value [3] was 14 and 12.

B4: CaMKIIα hub (6His-V15-mCaMKIIα hub construct: Venus tag, 15-amino-acid linker, α association domain) (domain or fragment)
chain: VRKQEIIKVTEQLIEAISNGDFESYTKMCDPGMTAFEPEALGNLVEGLDFHRFYFENLWSRNSKPVHTTILNPHIHLMGDESACIAYIRITQYLDAGGIPRTAQSEETRVWHRRDGKWQIVHFHRSGAPSVLPH
notes: CaMKII alpha association domain (AD); made from the holoenzyme construct by removal of the kinase domain; The plasmid is named mCaMKIIα, but the introduction speaks of rat α hubs; also called isolated α hub; CaMKIIα AD hub; source: E. coli BL21/Rosetta, co-transformed with a protein phosphatase plasmid, purified (nickel Hi-Trap); not shown: Venus, N-terminal, kept
With B4 the “stoichiometry N” value [1] was 12 and 14.
